What was measured:
[1] = target: EGFRvIII (human, UniProt P00533); assay: BLI
[2] = target: EGFR (wild-type, His-tagged or biotinylated) (human, UniProt P00533); assay: BLI

Row | Binder | Kd [1] | Kd [2]
1 | SI-95X68 (antibody) chain 1: not shown chain 2: DILMTQSPSSMSVSLGDTVSITCHSSQDINSNIGWLQQRPGKSFKGLIYHGTNLDDEVPSRFSGSGSGADYSLTISSLESEDFADYYCVQYAQFPWTFGGGTKLEIKRTVAAPSVFIFPPSDEQLKSGTASVVCLLNNFYPREAKVQWKVDNALQSGNSQESVTEQDSKDSTYSLSSTLTLSKADYEKHKVYACEVTHQGLSSPVTKSFNRGEC | 0.865 nM | 1.87 nM
2 | SI-95X49 (antibody) chain 1: not shown chain 2: EIVLTQSPSTLSVSPGERATFSCRASQSIGTNIHWYQQKPGKPPRLLIKYASESISGIPDRFSGSGSGTEFTLTISSVQSEDFAVYYCQQNFNWPTTFGPGTKLTVLRTVAAPSVFIFPPSDEQLKSGTASVVCLLNNFYPREAKVQWKVDNALQSGNSQESVTEQDSKDSTYSLSSTLTLSKADYEKHKVYACEVTHQGLSSPVTKSFNRGEC | 0.291 nM | 17.6 nM
3 | SI-95X44 (antibody) chain 1: not shown chain 2: DILMTQSPSSMSVSLGDTVSITCHSSQDINSNIGWLQQRPGKSFKGLIYHGTNLDDEVPSRFSGSGSGADYSLTISSLESEDFADYYCVQYAQFPWTFGGGTKLEIKRTVAAPSVFIFPPSDEQLKSGTASVVCLLNNFYPREAKVQWKVDNALQSGNSQESVTEQDSKDSTYSLSSTLTLSKADYEKHKVYACEVTHQGLSSPVTKSFNRGEC | 0.466 nM | 1.81 nM
4 | SI-95X45 (antibody) chain 1: not shown chain 2: EIVLTQSPSTLSVSPGERATFSCRASQSIGTNIHWYQQKPGKPPRLLIKYASESISGIPDRFSGSGSGTEFTLTISSVQSEDFAVYYCQQNNNWPTTFGPGTKLTVLRTVAAPSVFIFPPSDEQLKSGTASVVCLLNNFYPREAKVQWKVDNALQSGNSQESVTEQDSKDSTYSLSSTLTLSKADYEKHKVYACEVTHQGLSSPVTKSFNRGEC | 1.11 nM | 4.61 nM
5 | SI-95X56 (antibody) chain 1: not shown chain 2: DIVMTQSPSSVSLSLGDRVTITCHSSQDINSNIGWLQQKPGKAFKGLIYHGTNLDDGVPSRFSGSGSGADYTLTISSLQAEDFATYYCVQYAQFPWTFGPGTKLEIKRTVAAPSVFIFPPSDEQLKSGTASVVCLLNNFYPREAKVQWKVDNALQSGNSQESVTEQDSKDSTYSLSSTLTLSKADYEKHKVYACEVTHQGLSSPVTKSFNRGEC | 1.93 nM | 6.88 nM
6 | SI-95X50 (antibody) chain 1: not shown chain 2: EIVLTQSPSTLSVSPGERATFSCRASQSIGTNIHWYQQKPGKPPRLLIKYASESISGIPDRFSGSGSGTEFTLTISSVQSEDFAVYYCQQNNNWPTTFGPGTKLTVLRTVAAPSVFIFPPSDEQLKSGTASVVCLLNNFYPREAKVQWKVDNALQSGNSQESVTEQDSKDSTYSLSSTLTLSKADYEKHKVYACEVTHQGLSSPVTKSFNRGEC | 0.207 nM | 1.38 nM
7 | SI-95X54 (antibody) chain 1: not shown chain 2: DIVMTQSPSSVSLSLGDRVTITCHSSQDINSNIGWLQQKPGKAFKGLIYHGTNLDDGVPSRFSGSGSGADYTLTISSLQAEDFATYYCVQYAQFPWTFGPGTKLEIKRTVAAPSVFIFPPSDEQLKSGTASVVCLLNNFYPREAKVQWKVDNALQSGNSQESVTEQDSKDSTYSLSSTLTLSKADYEKHKVYACEVTHQGLSSPVTKSFNRGEC | 1.37 nM | 25.7 nM
8 | SI-95X47 (antibody) chain 1: not shown chain 2: EIVLTQSPSTLSVSPGERATFSCRASQSIGTNIHWYQQKPGKPPRLLIKYASESISGIPDRFSGSGSGTEFTLTISSVQSEDFAVYYCQQNNNWPTTFGPGTKLTVLRTVAAPSVFIFPPSDEQLKSGTASVVCLLNNFYPREAKVQWKVDNALQSGNSQESVTEQDSKDSTYSLSSTLTLSKADYEKHKVYACEVTHQGLSSPVTKSFNRGEC | 0.272 nM | 20.6 nM
9 | SI-95X58 (antibody) chain 1: not shown chain 2: EIVLTQSPSTLSVSPGERATFSCRASQSIGTNIHWYQQKPGKPPRLLIKYASESISGIPDRFSGSGSGTEFTLTISSVQSEDFAVYYCQQNNNWPTTFGPGTKLTVLRTVAAPSVFIFPPSDEQLKSGTASVVCLLNNFYPREAKVQWKVDNALQSGNSQESVTEQDSKDSTYSLSSTLTLSKADYEKHKVYACEVTHQGLSSPVTKSFNRGECGGGGSGGGGGSGGGGSGGGGSQVQLQESGPSLVKPSQTLSLTCTVSGYSITSDFAWNWIRQFPGRKLEWMGYISYSGNTRYNPSLKSRFTISRDTSKNQFYLKLRSVTIADTAVYYCVTAGRGFPYWGQGTLVTVSSGGGGSGGGGSGGGGSDIVMTQSPSSVSLSLGDRVTITCHSSQDINSNIGWLQQKPGKAFKGLIYHGTNLDDGVPSRFSGSGSGADYTLTISSLQAEDFATYYCVQYAQFPWTFGPGTKLEIK | 0.807 nM | 16 nM
10 | SI-95X59 (antibody) chain 1: not shown chain 2: EIVLTQSPSTLSVSPGERATFSCRASQSIGTNIHWYQQKPGKPPRLLIKYASESISGIPDRFSGSGSGTEFTLTISSVQSEDFAVYYCQQNNNWPTTFGPGTKLTVLRTVAAPSVFIFPPSDEQLKSGTASVVCLLNNFYPREAKVQWKVDNALQSGNSQESVTEQDSKDSTYSLSSTLTLSKADYEKHKVYACEVTHQGLSSPVTKSFNRGECGGGGSGGGGGSGGGGSGGGGSQVQLQESGPSLVKPSQTLSLTCTVSGYSITSDFAWNWIRQFPGRKLEWMGYISYSGNTRYNPSLKSRFTISRDTSKNQFYLKLRSVTIADTAVYYCVTAGRGFPYWGQGTLVTVSSGGGGSGGGGSGGGGSDIVMTQSPSSVSLSLGDRVTITCHSSQDINSNIGWLQQKPGKAFKGLIYHGTNLDDGVPSRFSGSGSGADYTLTISSLQAEDFATYYCVQYAQFPWTFGPGTKLEIK | 1.03 nM | 23.6 nM
11 | SI-95X60 (antibody) chain 1: not shown chain 2: EIVLTQSPSTLSVSPGERATFSCRASQSIGTNIHWYQQKPGKPPRLLIKYASESISGIPDRFSGSGSGTEFTLTISSVQSEDFAVYYCQQNNNWPTTFGPGTKLTVLRTVAAPSVFIFPPSDEQLKSGTASVVCLLNNFYPREAKVQWKVDNALQSGNSQESVTEQDSKDSTYSLSSTLTLSKADYEKHKVYACEVTHQGLSSPVTKSFNRGECGGGGSGGGGGSGGGGSGGGGSQVQLQESGPSLVKPSQTLSLTCTVSGYSITSDFAWNWIRQFPGRKLEWMGYISYSGNTRYNPSLKSRFTISRDTSKNQFYLKLRSVTIADTAVYYCVTAGRGFPYWGQGTLVTVSSGGGGSGGGGSGGGGSDIVMTQSPSSVSLSLGDRVTITCHSSQDINSNIGWLQQKPGKAFKGLIYHGTNLDDGVPSRFSGSGSGADYTLTISSLQAEDFATYYCVQYAQFPWTFGPGTKLEIK | 1.95 nM | 4.98 nM
12 | SI-95X57 (antibody) chain 1: not shown chain 2: EIVLTQSPSTLSVSPGERATFSCRASQSIGTNIHWYQQKPGKPPRLLIKYASESISGIPDRFSGSGSGTEFTLTISSVQSEDFAVYYCQQNNNWPTTFGPGTKLTVLRTVAAPSVFIFPPSDEQLKSGTASVVCLLNNFYPREAKVQWKVDNALQSGNSQESVTEQDSKDSTYSLSSTLTLSKADYEKHKVYACEVTHQGLSSPVTKSFNRGECGGGGSGGGGGSGGGGSGGGGSQVQLQESGPSLVKPSQTLSLTCTVSGYSITSDFAWNWIRQFPGRKLEWMGYISYSGNTRYNPSLKSRFTISRDTSKNQFYLKLRSVTIADTAVYYCVTAGRGFPYWGQGTLVTVSSGGGGSGGGGSGGGGSDIVMTQSPSSVSLSLGDRVTITCHSSQDINSNIGWLQQKPGKAFKGLIYHGTNLDDGVPSRFSGSGSGADYTLTISSLQAEDFATYYCVQYAQFPWTFGPGTKLEIK | 0.549 nM | 0.768 nM
13 | SI-95X40 (antibody) chain 1: not shown chain 2: DIQMTQSPSSLSASVGDRVTITCRSSQNIVHSNGNTYLDWYQQTPGKAPKLLIYKVSNRFSGVPSRFSGSGSGTDFTFTISSLQPEDIATYYCFQYSHVPWTFGQGTKLQITRTVAAPSVFIFPPSDEQLKSGTASVVCLLNNFYPREAKVQWKVDNALQSGNSQESVTEQDSKDSTYSLSSTLTLSKADYEKHKVYACEVTHQGLSSPVTKSFNRGEC | 1.16 nM | 0.954 nM
14 | SI-95X52 (antibody) chain 1: not shown chain 2: DIVMTQSPSSVSLSLGDRVTITCHSSQDINSNIGWLQQKPGKAFKGLIYHGTNLDDGVPSRFSGSGSGADYTLTISSLQAEDFATYYCVQYAQFPWTFGPGTKLEIKRTVAAPSVFIFPPSDEQLKSGTASVVCLLNNFYPREAKVQWKVDNALQSGNSQESVTEQDSKDSTYSLSSTLTLSKADYEKHKVYACEVTHQGLSSPVTKSFNRGEC | 1.47 nM | 19.3 nM
15 | SI-95X62 (antibody) chain 1: not shown chain 2: EIVLTQSPSTLSVSPGERATFSCRASQSIGTNIHWYQQKPGKPPRLLIKYASESISGIPDRFSGSGSGTEFTLTISSVQSEDFAVYYCQQNFNWPTTFGPGTKLTVLRTVAAPSVFIFPPSDEQLKSGTASVVCLLNNFYPREAKVQWKVDNALQSGNSQESVTEQDSKDSTYSLSSTLTLSKADYEKHKVYACEVTHQGLSSPVTKSFNRGECGGGGSGGGGGSGGGGSGGGGSQVQLQESGPSLVKPSQTLSLTCTVSGYSITSDFAWNWIRQFPGRKLEWMGYISYSGNTRYNPSLKSRFTISRDTSKNQFYLKLRSVTIADTAVYYCVTAGRGFPYWGQGTLVTVSSGGGGSGGGGSGGGGSDIVMTQSPSSVSLSLGDRVTITCHSSQDINSNIGWLQQKPGKAFKGLIYHGTNLDDGVPSRFSGSGSGADYTLTISSLQAEDFATYYCVQYAQFPWTFGPGTKLEIK | 1.02 nM | 8.16 nM
16 | SI-95X65 (antibody) chain 1: not shown chain 2: DILMTQSPSSMSVSLGDTVSITCHSSQDINSNIGWLQQRPGKSFKGLIYHGTNLDDEVPSRFSGSGSGADYSLTISSLESEDFADYYCVQYAQFPWTFGGGTKLEIKRTVAAPSVFIFPPSDEQLKSGTASVVCLLNNFYPREAKVQWKVDNALQSGNSQESVTEQDSKDSTYSLSSTLTLSKADYEKHKVYACEVTHQGLSSPVTKSFNRGEC | 0.804 nM | 3.07 nM
17 | SI-95X53 (antibody) chain 1: not shown chain 2: DIVMTQSPSSVSLSLGDRVTITCHSSQDINSNIGWLQQKPGKAFKGLIYHGTNLDDGVPSRFSGSGSGADYTLTISSLQAEDFATYYCVQYAQFPWTFGPGTKLEIKRTVAAPSVFIFPPSDEQLKSGTASVVCLLNNFYPREAKVQWKVDNALQSGNSQESVTEQDSKDSTYSLSSTLTLSKADYEKHKVYACEVTHQGLSSPVTKSFNRGEC | 1.28 nM | 18.2 nM

— US20260337278 (published 2026)
